From PMC4529235, “The Human Acid-Sensing Ion Channel ASIC1a: Evidence for a Homotetrameric Assembly State at the Cell Surface” (PLoS ONE, 2015)

Legend:
[1] = target: the molecule itself; assay: cross-linking; intracellular BMOE (2 mM, internal perfusion or injection) in Xenopus oocytes; SDS-PAGE under reducing conditions, anti-ASIC1a western blot
[2] = target: the molecule itself; assay: cross-linking; BMOE (0.5 or 2 mM) at the cell surface of Xenopus oocytes and CHO cells before lysis, cell-surface biotinylated fractions, SDS-PAGE under reducing conditions, anti-ASIC1a western blot; band intensities pooled over oocytes and CHO cells
[3] = target: the molecule itself; assay: cross-linking; 2 mM BMOE at the cell surface of intact Xenopus oocytes, cell-surface biotinylation, streptavidin beads, SDS-PAGE under reducing conditions, anti-His-tag western blot (ΔCCt background)

B1: wild type human ASIC1a (H8-ASIC1a) (natural protein, UniProt P78348-2 1-528, looked up)
chain: MELKAEEEEVGGVQPVSIQAFASSSTLHGLAHIFSYERLSLKRALWALCFLGSLAVLLCVCTERVQYYFHYHHVTKLDEVAASQLTFPAVTLCNLNEFRFSQVSKNDLYHAGELLALLNNRYEIPDTQMADEKQLEILQDKANFRSFKPKPFNMREFYDRAGHDIRDMLLSCHFRGEVCSAEDFKVVFTRYGKCYTFNSGRDGRPRLKTMKGGTGNGLEIMLDIQQDEYLPVWGETDETSFEAGIKVQIHSQDEPPFIDQLGFGVAPGFQTFVACQEQRLIYLPPPWGTCKAVTMDSDLDFFDSYSITACRIDCETRYLVENCNCRMVHMPGDAPYCTPEQYKECADPALDFLVEKDQEYCVCEMPCNLTRYGKELSMVKIPSKASAKYLAKKFNKSEQYIGENILVLDIFFEVLNYETIEQKKAYEIAGLLGDIGGQMGLFIGASILTVLELFDYAYEVIKHKLCRRGKCQKEAKRSSADKGVALSLDDVKRHNPCESLRGHPAGMTYAANILPHHPARGTFEDFTC
notes: ends with the terminal Cys (C528); Same construct expressed in two hosts; the printed band intensities pool oocytes and CHO cells; also called ASIC1a wt; hASIC1a; source: Xenopus laevis oocytes, cRNA injected; CHO-K1 cells, transfected; not shown: His8, N-terminal, kept
stoichiometry N [1]: 4

B2: ASIC1a G433C (with intact C-terminal cysteines) (natural protein, human, UniProt P78348-2 1-528, looked up)
chain: MELKAEEEEVGGVQPVSIQAFASSSTLHGLAHIFSYERLSLKRALWALCFLGSLAVLLCVCTERVQYYFHYHHVTKLDEVAASQLTFPAVTLCNLNEFRFSQVSKNDLYHAGELLALLNNRYEIPDTQMADEKQLEILQDKANFRSFKPKPFNMREFYDRAGHDIRDMLLSCHFRGEVCSAEDFKVVFTRYGKCYTFNSGRDGRPRLKTMKGGTGNGLEIMLDIQQDEYLPVWGETDETSFEAGIKVQIHSQDEPPFIDQLGFGVAPGFQTFVACQEQRLIYLPPPWGTCKAVTMDSDLDFFDSYSITACRIDCETRYLVENCNCRMVHMPGDAPYCTPEQYKECADPALDFLVEKDQEYCVCEMPCNLTRYGKELSMVKIPSKASAKYLAKKFNKSEQYIGENILVLDIFFEVLNYETIEQKKAYEIAGLLCDIGGQMGLFIGASILTVLELFDYAYEVIKHKLCRRGKCQKEAKRSSADKGVALSLDDVKRHNPCESLRGHPAGMTYAANILPHHPARGTFEDFTC
notes: human ASIC1a with G433C, C-terminal cysteines intact; The methods describe G433C only on the ΔCCt template; the results say that this G433C has intact C-terminal cysteines; source: Xenopus laevis oocytes, cRNA injected; CHO-K1 cells, transfected; not shown: His8, N-terminal, kept
stoichiometry N [2]: 4

B3: ASIC1a-ΔCCt (H8-hASIC1a-C466A/C471A/C497A/C528Stop) (natural protein, human, UniProt P78348-2 1-527, looked up)
chain: MELKAEEEEVGGVQPVSIQAFASSSTLHGLAHIFSYERLSLKRALWALCFLGSLAVLLCVCTERVQYYFHYHHVTKLDEVAASQLTFPAVTLCNLNEFRFSQVSKNDLYHAGELLALLNNRYEIPDTQMADEKQLEILQDKANFRSFKPKPFNMREFYDRAGHDIRDMLLSCHFRGEVCSAEDFKVVFTRYGKCYTFNSGRDGRPRLKTMKGGTGNGLEIMLDIQQDEYLPVWGETDETSFEAGIKVQIHSQDEPPFIDQLGFGVAPGFQTFVACQEQRLIYLPPPWGTCKAVTMDSDLDFFDSYSITACRIDCETRYLVENCNCRMVHMPGDAPYCTPEQYKECADPALDFLVEKDQEYCVCEMPCNLTRYGKELSMVKIPSKASAKYLAKKFNKSEQYIGENILVLDIFFEVLNYETIEQKKAYEIAGLLGDIGGQMGLFIGASILTVLELFDYAYEVIKHKLARRGKAQKEAKRSSADKGVALSLDDVKRHNPAESLRGHPAGMTYAANILPHHPARGTFEDFT
notes: human ASIC1a lacking the cysteines of the C-terminus; C528Stop removes the last residue; also called Ctrl; source: Xenopus laevis oocytes, cRNA injected; not shown: His8, N-terminal, kept
stoichiometry N [3]: 2

B4: G430C-ΔCCt (natural protein, human, UniProt P78348 1-527, looked up)
chain: MELKAEEEEVGGVQPVSIQAFASSSTLHGLAHIFSYERLSLKRALWALCFLGSLAVLLCVCTERVQYYFHYHHVTKLDEVAASQLTFPAVTLCNLNEFRFSQVSKNDLYHAGELLALLNNRYEIPDTQMADEKQLEILQDKANFRSFKPKPFNMREFYDRAGHDIRDMLLSCHFRGEVCSAEDFKVVFTRYGKCYTFNSGRDGRPRLKTMKGGTGNGLEIMLDIQQDEYLPVWGETDETSFEAGIKVQIHSQDEPPFIDQLGFGVAPGFQTFVACQEQRLIYLPPPWGTCKAVTMDSDLDFFDSYSITACRIDCETRYLVENCNCRMVHMPGDAPYCTPEQYKECADPALDFLVEKDQEYCVCEMPCNLTRYGKELSMVKIPSKASAKYLAKKFNKSEQYIGENILVLDIFFEVLNYETIEQKKAYEIACLLGDIGGQMGLFIGASILTVLELFDYAYEVIKHKLARRGKAQKEAKRSSADKGVALSLDDVKRHNPAESLRGHPAGMTYAANILPHHPARGTFEDFT
notes: human ASIC1a, ΔCCt background (C528Stop removes the last residue) with G430C; source: Xenopus laevis oocytes, cRNA injected; not shown: His8, N-terminal, kept
stoichiometry N [3]: 4

B5: V74C-ΔCCt (natural protein, human, UniProt P78348 1-527, looked up)
chain: MELKAEEEEVGGVQPVSIQAFASSSTLHGLAHIFSYERLSLKRALWALCFLGSLAVLLCVCTERVQYYFHYHHCTKLDEVAASQLTFPAVTLCNLNEFRFSQVSKNDLYHAGELLALLNNRYEIPDTQMADEKQLEILQDKANFRSFKPKPFNMREFYDRAGHDIRDMLLSCHFRGEVCSAEDFKVVFTRYGKCYTFNSGRDGRPRLKTMKGGTGNGLEIMLDIQQDEYLPVWGETDETSFEAGIKVQIHSQDEPPFIDQLGFGVAPGFQTFVACQEQRLIYLPPPWGTCKAVTMDSDLDFFDSYSITACRIDCETRYLVENCNCRMVHMPGDAPYCTPEQYKECADPALDFLVEKDQEYCVCEMPCNLTRYGKELSMVKIPSKASAKYLAKKFNKSEQYIGENILVLDIFFEVLNYETIEQKKAYEIAGLLGDIGGQMGLFIGASILTVLELFDYAYEVIKHKLARRGKAQKEAKRSSADKGVALSLDDVKRHNPAESLRGHPAGMTYAANILPHHPARGTFEDFT
notes: human ASIC1a, ΔCCt background (C528Stop removes the last residue) with V74C; source: Xenopus laevis oocytes, cRNA injected; not shown: His8, N-terminal, kept
stoichiometry N [3]: 4

B6: Y426C-ΔCCt (natural protein, human, UniProt P78348 1-527, looked up)
chain: MELKAEEEEVGGVQPVSIQAFASSSTLHGLAHIFSYERLSLKRALWALCFLGSLAVLLCVCTERVQYYFHYHHVTKLDEVAASQLTFPAVTLCNLNEFRFSQVSKNDLYHAGELLALLNNRYEIPDTQMADEKQLEILQDKANFRSFKPKPFNMREFYDRAGHDIRDMLLSCHFRGEVCSAEDFKVVFTRYGKCYTFNSGRDGRPRLKTMKGGTGNGLEIMLDIQQDEYLPVWGETDETSFEAGIKVQIHSQDEPPFIDQLGFGVAPGFQTFVACQEQRLIYLPPPWGTCKAVTMDSDLDFFDSYSITACRIDCETRYLVENCNCRMVHMPGDAPYCTPEQYKECADPALDFLVEKDQEYCVCEMPCNLTRYGKELSMVKIPSKASAKYLAKKFNKSEQYIGENILVLDIFFEVLNYETIEQKKACEIAGLLGDIGGQMGLFIGASILTVLELFDYAYEVIKHKLARRGKAQKEAKRSSADKGVALSLDDVKRHNPAESLRGHPAGMTYAANILPHHPARGTFEDFT
notes: human ASIC1a, ΔCCt background (C528Stop removes the last residue) with Y426C; also called Y426C-CCt; source: Xenopus laevis oocytes, cRNA injected; not shown: His8, N-terminal, kept
stoichiometry N [3]: 4

B7: G433C-ΔCCt (natural protein, human, UniProt P78348 1-527, looked up)
chain: MELKAEEEEVGGVQPVSIQAFASSSTLHGLAHIFSYERLSLKRALWALCFLGSLAVLLCVCTERVQYYFHYHHVTKLDEVAASQLTFPAVTLCNLNEFRFSQVSKNDLYHAGELLALLNNRYEIPDTQMADEKQLEILQDKANFRSFKPKPFNMREFYDRAGHDIRDMLLSCHFRGEVCSAEDFKVVFTRYGKCYTFNSGRDGRPRLKTMKGGTGNGLEIMLDIQQDEYLPVWGETDETSFEAGIKVQIHSQDEPPFIDQLGFGVAPGFQTFVACQEQRLIYLPPPWGTCKAVTMDSDLDFFDSYSITACRIDCETRYLVENCNCRMVHMPGDAPYCTPEQYKECADPALDFLVEKDQEYCVCEMPCNLTRYGKELSMVKIPSKASAKYLAKKFNKSEQYIGENILVLDIFFEVLNYETIEQKKAYEIAGLLCDIGGQMGLFIGASILTVLELFDYAYEVIKHKLARRGKAQKEAKRSSADKGVALSLDDVKRHNPAESLRGHPAGMTYAANILPHHPARGTFEDFT
notes: human ASIC1a, ΔCCt background (C528Stop removes the last residue) with G433C; source: Xenopus laevis oocytes, cRNA injected; not shown: His8, N-terminal, kept
stoichiometry N [3]: 4
